This is an account of results in article PMC11790958.

The data set addresses condensin I tetramer lacking NCAPG (CIΔG) (Homo sapiens, UniProt O95347;Q9NTJ3;Q15003;Q15021 1-1197;1-1288;1-741;1-1401). The data set is described as follows: EMSA; 2.5 mM Mg2+; EMSA: 50 nM DNA, 20 mM HEPES pH 8, 150 mM KCl, 2.5 mM MgCl2, 10% glycerol, 1 mM DTT, on ice 20 min; 2% agarose, 0.5x TB. The conditions noted are these: protein: recombinant; tags: Strep; copies: 1;1;1;1; label: 5' Cy5 on reverse strand (S2); blunt. Background: A gel shift assay detects complexes by their altered migration in electrophoresis.

condensin I tetramer lacking NCAPG (CIΔG), sequence (O95347 whole entry, stated change not applied, chain 1 of 4): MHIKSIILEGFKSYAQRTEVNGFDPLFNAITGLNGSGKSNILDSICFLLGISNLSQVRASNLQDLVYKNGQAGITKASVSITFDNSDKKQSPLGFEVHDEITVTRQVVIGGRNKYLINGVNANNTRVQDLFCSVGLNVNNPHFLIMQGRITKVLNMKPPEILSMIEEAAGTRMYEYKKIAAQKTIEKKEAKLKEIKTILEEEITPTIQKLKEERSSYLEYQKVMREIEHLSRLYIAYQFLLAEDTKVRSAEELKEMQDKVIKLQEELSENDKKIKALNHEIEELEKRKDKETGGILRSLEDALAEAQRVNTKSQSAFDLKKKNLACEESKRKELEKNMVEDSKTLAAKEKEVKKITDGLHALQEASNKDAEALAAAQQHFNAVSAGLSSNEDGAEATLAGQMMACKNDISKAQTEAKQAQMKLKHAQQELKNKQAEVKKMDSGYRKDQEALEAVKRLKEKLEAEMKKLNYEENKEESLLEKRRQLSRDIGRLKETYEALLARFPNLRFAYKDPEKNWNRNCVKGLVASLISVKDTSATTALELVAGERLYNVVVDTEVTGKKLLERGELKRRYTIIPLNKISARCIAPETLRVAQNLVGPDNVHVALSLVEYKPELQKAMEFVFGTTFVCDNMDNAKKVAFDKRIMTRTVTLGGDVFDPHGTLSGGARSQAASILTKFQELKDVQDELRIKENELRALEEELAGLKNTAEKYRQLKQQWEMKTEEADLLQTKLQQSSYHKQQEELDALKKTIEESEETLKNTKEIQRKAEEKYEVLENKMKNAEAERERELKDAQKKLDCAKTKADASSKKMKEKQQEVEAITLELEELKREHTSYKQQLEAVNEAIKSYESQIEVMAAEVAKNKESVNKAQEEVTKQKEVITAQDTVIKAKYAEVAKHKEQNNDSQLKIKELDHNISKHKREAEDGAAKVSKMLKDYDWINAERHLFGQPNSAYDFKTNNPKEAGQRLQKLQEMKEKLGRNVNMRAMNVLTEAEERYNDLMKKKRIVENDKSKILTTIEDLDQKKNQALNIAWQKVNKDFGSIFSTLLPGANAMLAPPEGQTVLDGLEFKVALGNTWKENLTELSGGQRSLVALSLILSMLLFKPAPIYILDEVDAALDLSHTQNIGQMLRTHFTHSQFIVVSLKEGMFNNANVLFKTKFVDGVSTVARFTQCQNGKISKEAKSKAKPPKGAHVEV
condensin I tetramer lacking NCAPG (CIΔG), sequence (Q9NTJ3 whole entry, stated change not applied, chain 2 of 4): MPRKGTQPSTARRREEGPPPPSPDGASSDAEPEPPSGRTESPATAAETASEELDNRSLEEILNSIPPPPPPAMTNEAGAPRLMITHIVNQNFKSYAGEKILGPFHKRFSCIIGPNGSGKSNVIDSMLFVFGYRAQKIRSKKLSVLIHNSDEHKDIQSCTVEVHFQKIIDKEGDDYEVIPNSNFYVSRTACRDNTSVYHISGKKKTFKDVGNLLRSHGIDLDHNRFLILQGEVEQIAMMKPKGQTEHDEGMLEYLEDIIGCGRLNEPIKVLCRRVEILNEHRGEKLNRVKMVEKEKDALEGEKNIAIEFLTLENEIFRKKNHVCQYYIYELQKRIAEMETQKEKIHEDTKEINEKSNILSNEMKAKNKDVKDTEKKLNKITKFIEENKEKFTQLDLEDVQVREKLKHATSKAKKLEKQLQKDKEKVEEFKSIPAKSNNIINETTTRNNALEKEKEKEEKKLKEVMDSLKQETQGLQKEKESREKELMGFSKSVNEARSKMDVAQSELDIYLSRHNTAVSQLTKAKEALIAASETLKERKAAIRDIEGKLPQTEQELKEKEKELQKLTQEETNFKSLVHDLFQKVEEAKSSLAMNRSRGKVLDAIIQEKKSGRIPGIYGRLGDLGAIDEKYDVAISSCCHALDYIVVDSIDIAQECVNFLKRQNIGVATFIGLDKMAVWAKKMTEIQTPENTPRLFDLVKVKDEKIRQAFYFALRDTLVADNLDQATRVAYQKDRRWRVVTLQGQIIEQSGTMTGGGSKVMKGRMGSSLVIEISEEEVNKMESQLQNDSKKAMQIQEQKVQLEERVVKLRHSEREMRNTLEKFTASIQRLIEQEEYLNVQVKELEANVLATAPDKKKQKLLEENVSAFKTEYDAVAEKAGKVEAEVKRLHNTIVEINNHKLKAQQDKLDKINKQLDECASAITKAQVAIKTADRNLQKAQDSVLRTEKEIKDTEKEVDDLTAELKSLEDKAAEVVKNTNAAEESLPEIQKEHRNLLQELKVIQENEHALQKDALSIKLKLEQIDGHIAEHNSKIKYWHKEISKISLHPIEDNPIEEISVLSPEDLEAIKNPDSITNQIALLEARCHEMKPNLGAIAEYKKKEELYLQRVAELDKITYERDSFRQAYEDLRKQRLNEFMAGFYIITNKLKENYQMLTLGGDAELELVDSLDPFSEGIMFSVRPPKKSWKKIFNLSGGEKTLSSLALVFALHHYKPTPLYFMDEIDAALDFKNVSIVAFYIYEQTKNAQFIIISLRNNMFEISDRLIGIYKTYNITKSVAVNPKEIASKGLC
condensin I tetramer lacking NCAPG (CIΔG), sequence (Q15003 whole entry, stated change not applied, chain 3 of 4): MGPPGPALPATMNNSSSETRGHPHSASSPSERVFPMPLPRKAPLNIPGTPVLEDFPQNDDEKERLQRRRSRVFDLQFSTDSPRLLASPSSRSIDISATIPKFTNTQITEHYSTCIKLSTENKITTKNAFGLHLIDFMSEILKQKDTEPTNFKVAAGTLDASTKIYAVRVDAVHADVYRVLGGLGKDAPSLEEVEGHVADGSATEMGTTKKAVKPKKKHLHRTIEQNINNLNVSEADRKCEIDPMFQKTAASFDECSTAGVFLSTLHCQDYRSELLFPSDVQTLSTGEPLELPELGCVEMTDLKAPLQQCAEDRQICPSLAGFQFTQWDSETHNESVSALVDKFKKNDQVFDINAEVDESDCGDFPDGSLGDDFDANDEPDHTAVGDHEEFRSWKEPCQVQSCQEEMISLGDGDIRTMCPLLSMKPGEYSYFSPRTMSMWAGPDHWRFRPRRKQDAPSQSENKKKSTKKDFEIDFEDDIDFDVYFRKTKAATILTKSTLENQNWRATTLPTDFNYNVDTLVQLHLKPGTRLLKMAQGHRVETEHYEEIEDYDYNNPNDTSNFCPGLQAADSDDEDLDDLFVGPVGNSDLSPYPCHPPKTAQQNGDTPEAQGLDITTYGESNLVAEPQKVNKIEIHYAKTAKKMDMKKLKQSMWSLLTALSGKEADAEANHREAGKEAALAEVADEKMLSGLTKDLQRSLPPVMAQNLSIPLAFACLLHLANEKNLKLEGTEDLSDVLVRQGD
condensin I tetramer lacking NCAPG (CIΔG), sequence (Q15021 whole entry, stated change not applied, chain 4 of 4): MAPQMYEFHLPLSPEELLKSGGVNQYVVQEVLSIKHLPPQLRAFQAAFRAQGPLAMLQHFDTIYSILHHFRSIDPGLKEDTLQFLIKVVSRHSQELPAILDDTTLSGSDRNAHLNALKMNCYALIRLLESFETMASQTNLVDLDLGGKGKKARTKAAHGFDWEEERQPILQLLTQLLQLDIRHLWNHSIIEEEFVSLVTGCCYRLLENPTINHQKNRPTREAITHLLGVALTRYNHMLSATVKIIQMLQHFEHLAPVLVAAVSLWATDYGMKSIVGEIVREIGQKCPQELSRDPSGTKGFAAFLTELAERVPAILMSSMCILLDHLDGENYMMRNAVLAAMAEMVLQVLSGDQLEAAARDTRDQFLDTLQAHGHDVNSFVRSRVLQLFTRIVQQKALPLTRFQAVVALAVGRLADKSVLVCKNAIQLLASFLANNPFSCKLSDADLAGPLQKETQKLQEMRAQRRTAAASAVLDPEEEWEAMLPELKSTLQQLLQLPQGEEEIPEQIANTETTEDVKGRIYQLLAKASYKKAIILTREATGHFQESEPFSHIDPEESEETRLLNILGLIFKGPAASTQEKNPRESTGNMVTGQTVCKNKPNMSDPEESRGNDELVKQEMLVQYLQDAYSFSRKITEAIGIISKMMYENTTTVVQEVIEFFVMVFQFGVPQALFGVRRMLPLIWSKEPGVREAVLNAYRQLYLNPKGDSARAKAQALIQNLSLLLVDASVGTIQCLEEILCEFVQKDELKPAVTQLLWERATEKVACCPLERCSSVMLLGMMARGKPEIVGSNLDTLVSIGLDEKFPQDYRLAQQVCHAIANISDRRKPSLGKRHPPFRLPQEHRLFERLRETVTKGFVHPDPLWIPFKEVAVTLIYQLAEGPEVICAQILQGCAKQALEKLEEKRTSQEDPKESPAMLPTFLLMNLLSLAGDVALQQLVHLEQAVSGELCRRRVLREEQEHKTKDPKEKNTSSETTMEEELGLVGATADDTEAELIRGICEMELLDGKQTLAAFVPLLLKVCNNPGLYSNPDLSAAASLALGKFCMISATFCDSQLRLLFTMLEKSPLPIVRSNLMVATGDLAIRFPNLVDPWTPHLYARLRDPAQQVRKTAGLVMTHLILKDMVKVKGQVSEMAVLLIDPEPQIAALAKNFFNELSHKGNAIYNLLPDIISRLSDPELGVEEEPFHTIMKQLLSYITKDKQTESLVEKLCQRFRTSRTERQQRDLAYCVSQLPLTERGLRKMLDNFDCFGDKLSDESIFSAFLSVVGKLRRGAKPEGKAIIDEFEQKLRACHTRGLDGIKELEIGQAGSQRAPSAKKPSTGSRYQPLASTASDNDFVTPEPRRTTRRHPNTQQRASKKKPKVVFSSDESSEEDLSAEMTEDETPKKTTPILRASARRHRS

B1: Cy5 50 bp dsDNA (dsDNA)
DNA 1: GGTGTGACAGGGTGTGACAGGGTGTGACAGGGTGTGACAGGGTGTGACAG
DNA 2: CTGTCACACCCTGTCACACCCTGTCACACCCTGTCACACCCTGTCACACC
Take B1: the binding signal is ~4 fold lower affinity than CI.
